According to patent publication US12365732 (23ANDME, dated 2025):

T1: cynomolgus monkey CD96 on cynomolgus monkey PBMCs (cynomolgus monkey, UniProt A0A2K5TWV6 22-569)
T1 construct: whole, on cells
T1 sequence: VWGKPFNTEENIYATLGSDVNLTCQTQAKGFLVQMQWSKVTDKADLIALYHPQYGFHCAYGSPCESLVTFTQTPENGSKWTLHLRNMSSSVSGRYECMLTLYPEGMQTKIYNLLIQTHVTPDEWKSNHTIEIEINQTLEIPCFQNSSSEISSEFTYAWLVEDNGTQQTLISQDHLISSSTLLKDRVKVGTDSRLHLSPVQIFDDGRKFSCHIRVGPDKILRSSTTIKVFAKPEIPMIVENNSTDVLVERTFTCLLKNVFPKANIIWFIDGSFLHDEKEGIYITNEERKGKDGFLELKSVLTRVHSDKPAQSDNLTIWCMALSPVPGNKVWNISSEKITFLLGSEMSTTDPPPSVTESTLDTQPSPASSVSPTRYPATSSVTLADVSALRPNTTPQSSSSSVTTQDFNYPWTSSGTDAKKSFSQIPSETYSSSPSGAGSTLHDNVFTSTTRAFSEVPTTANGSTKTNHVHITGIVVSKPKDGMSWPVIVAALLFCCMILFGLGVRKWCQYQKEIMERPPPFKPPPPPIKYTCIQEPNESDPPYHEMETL

T2: hu-CD96 isoform 1 on HEK293T cells (human, UniProt P40200 22-585)
T2 construct: Origene RC213845, transient expression; also called HEK293T-CD96 (iso1)
T2 sequence: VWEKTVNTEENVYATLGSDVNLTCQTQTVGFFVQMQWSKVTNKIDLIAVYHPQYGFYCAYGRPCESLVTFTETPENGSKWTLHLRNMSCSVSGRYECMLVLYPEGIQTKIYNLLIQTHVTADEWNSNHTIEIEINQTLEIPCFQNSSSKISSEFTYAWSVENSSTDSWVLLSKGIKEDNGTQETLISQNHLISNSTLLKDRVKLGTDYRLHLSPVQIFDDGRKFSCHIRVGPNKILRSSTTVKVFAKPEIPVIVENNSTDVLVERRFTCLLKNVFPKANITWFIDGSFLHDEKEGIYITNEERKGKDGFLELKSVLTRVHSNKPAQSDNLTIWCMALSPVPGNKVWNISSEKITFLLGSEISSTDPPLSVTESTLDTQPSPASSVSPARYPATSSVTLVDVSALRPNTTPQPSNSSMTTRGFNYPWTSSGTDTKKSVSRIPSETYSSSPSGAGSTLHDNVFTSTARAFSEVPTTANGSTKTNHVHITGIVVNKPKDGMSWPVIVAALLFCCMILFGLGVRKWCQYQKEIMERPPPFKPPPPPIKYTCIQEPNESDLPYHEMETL

T3: hu-CD96 isoform 2 on CHO cells (human, UniProt P40200 22-585)
T3 construct: also called CHO-CD96 (isoform 2); CD96-CHOs
T3 sequence: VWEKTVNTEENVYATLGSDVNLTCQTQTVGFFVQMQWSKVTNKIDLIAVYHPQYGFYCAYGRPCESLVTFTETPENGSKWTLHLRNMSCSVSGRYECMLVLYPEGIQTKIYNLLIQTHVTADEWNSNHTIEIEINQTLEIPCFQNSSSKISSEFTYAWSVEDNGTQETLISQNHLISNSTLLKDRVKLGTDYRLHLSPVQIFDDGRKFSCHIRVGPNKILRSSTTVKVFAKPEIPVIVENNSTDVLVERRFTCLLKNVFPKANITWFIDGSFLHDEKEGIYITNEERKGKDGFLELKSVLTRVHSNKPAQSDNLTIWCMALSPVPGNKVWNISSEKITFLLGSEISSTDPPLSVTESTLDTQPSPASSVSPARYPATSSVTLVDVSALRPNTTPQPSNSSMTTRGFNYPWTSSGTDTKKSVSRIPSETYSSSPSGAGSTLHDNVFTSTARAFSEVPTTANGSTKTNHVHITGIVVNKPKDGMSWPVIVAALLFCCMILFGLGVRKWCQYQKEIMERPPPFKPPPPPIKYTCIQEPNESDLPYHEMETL


How the values were obtained:
[1] = biological target: T1, cynomolgus monkey CD96 on cynomolgus …; assay: FACS, Ab 0.0256 nM
Experimental: (§1) The ability of the anti-CD96 antibodies to bind primary immune cells from human and cynomolgus monkey with lower level of receptor expression was measured. Human PBMCs (StemCell Technologies, catalog #70025) and cynomolgus monkey PBMCs (Primate Biologicals, catalog #CM-MC) were incubated with human TruStain FcX (Biolegend, catalog #422302) for 10 minutes at 4° C., followed by incubation with an anti-CD96 antibody for 20 minutes at 4° C. Cells were washed and the anti-CD96 antibody binding was detected by incubation with anti-mouse IgG-PE (Thermo Fisher, catalog #M30204) or anti-human IgG (Fab) 2-PE (Thermo Fisher, catalog #H10104) for 20 minutes at 4° C. Cells were washed, and immune subtypes were labeled with anti-CD3 (BD, catalog #557705), anti-CD4 (Biolegend, catalog #317424) and anti-CD8 (BD, catalog #557760) for 20 minutes at 4° C. Cell binding was analyzed by flow cytometry with a CytoFLEX (Beckman Coulter). Binding curves were calculated as a percentage of cells positive for bound antibody in the cell type of interest.

[2] = biological target: T1, cynomolgus monkey CD96 on cynomolgus …; assay: FACS, Ab 80 nM
Experimental: as §1

[3] = biological target: T2, hu-CD96 isoform 1 on HEK293T cells; assay: FACS, Ab 0.016 nM
Experimental: (§2) Isoform 1 of hu-CD96 (Origene, catalog #RC213845) was transiently expressed in HEK293T cells following standard lipofectamine or Fugene transfection protocol. […] Cells were washed, and binding was detected by incubation with anti-mouse IgG-FITC (Biolegend, catalog #406001) for 20 minutes at 4° C. Cell binding was analyzed by flow cytometry with a CytoFLEX (Beckman Coulter). Binding curves were calculated as a percentage of cells positive for bound antibody.

[4] = biological target: T2, hu-CD96 isoform 1 on HEK293T cells; assay: FACS, Ab 0.08 nM
Experimental: as §2

[5] = biological target: T2, hu-CD96 isoform 1 on HEK293T cells; assay: FACS, Ab 10 nM
Experimental: as §2

[6] = biological target: T3, hu-CD96 isoform 2 on CHO cells; assay: FACS, Ab 50 nM
Experimental: as §2
Isoform 2 of hu-CD96 (DNA construct: Origene, catalog #RC221005) was expressed on a single-cell-clone-derived CHO stable cell line. Binding of the anti-CD96 antibodies to the CHO cells were determined as described above with isoform 1 of hu-CD96.

Binder | % positive [1] [%] | % positive [2] [%] | % positive [3] [%] | % positive [4] [%] | % positive [5] [%] | % positive [6] [%]
h10G1 IgG (humanized 10G1) (antibody, V domains shown, human IgG1 N297G) VH: EIQLVQSGSELKKPGASVKVSCKASGYPFTTYGMSWVRQAPGQGLEWMGWINTDSGVPTYADDFKGRFVFSLDTSVSTAYLQISSLKAEDTAVYFCARNIYYGWGNFDYWGQGTLVTVSS VL: EIVMTQSPDFQSVTPKEKVTITCRASQDIYRNLHWYQQKPDQTPKLLIKHASDSISGIPSRFSGSGSGTDFTLTINSLEAEDAAAYYCLQGYSMPYTFGGGTKVEIKG | 16.8 | 68.3 | – | – | – | –
mAb1.v7 IgG (humanized 12F8) (antibody, V domains shown, human IgG1 N297G) VH: EVQLVQSGAEVKKPGASVKVSCKASGFTFTNNWMHWVRQAPGQGLEWIGMIHPNSGITNINEKFKNRVTMTTDTSTSTAYMELRSLRSEDTAVYYCRSDGTYEGYFDYWGQGTLVTVSS VL: DIQLTQSPSSLSASVGDRVTITCKASQNVGTAIVWYQQKPGKAPKVLIYSASTRYTGVPSRFSGSGSGTDFTLTISSLQPEDFATYYCQQYSSSPLTFGQGTKVEIKG | – | – | 0.5 | 0.8 | 48.8 | 44.1
mAb1.v7.NGS11 IgG (antibody, V domains shown, human IgG1 N297G) VH: EVQLVQSGAEVKKPGASVKVSCKASGFTFTNNFMHWVRQAPGQGLEWIGFIHANSGITNINEKFKNRVTMTTDTSTSTAYMELRSLRSEDTAVYYCRSDGVYEGYFDYWGQGTLVTVSS VL: DIQLTQSPSSLSASVGDRVTITCKASQNVGTAIVWYQQKPGKAPKVLIYSASTRYTGVPSRFSGSGSGTDFTLTISSLQPEDFATYYCQQYSSSPLTFGQGTKVEIKG | 41 | 81.9 | – | – | – | –
mAb1.v7.NGS9 IgG (antibody, V domains shown, human IgG1 N297G) VH: EVQLVQSGAEVKKPGASVKVSCKASGFTFTNNFMHWVRQAPGQGLEWIGMIHANSGITNINEKFKNRVTMTTDTSTSTAYMELRSLRSEDTAVYYCRSDGVYEGYFDYWGQGTLVTVSS VL: DIQLTQSPSSLSASVGDRVTITCKASQNVGTAIVWYQQKPGKAPKVLIYSASTRYTGVPSRFSGSGSGTDFTLTISSLQPEDFATYYCQQYSSSPLTFGQGTKVEIKG | 19.7 | 73.8 | – | – | – | –
mAb1.v7.NGS10 IgG (antibody, V domains shown, human IgG1 N297G) VH: EVQLVQSGAEVKKPGASVKVSCKASGFTFTNNFMHWVRQAPGQGLEWIGFIHANSGITNINEKFKNRVTMTTDTSTSTAYMELRSLRSEDTAVYYCRSDGIYEGYFDYWGQGTLVTVSS VL: DIQLTQSPSSLSASVGDRVTITCKASQNVGTAIVWYQQKPGKAPKVLIYSASTRYTGVPSRFSGSGSGTDFTLTISSLQPEDFATYYCQQYSSSPLTFGQGTKVEIKG | 37.2 | 75.2 | – | – | – | –
10G1 (clone 10G1.3G8), purified hybridoma antibody (antibody, V domains shown, murine hybridoma IgG) VH: QIQLVQSGPELKKPGETVKISCKASGYPFTTYGMSWVKQAPGKGLKWMGWINTDSGVPTYADDFKGRFAFSLETSANTAYLQINSLKNEDAATYFCARNIYYGWGNFDYWGQGTILTVSS VL: DILMTQSPTTLSVTPGETVSLSCRASQDIYRNLHWYQQKSQGTPRLLIKHASDSISGIPSRFTGSGSGTDFTLSINSVKPEDEGIYYCLQGYSMPYTFGGGTKLEIK | – | – | 4.4 | 16.5 | 53.4 | 39.8
7E5, purified hybridoma antibody (antibody, V domains shown, murine hybridoma IgG) VH: QVQLKESGPGLVAPSQSLSIICTVSGFSLTNYGIHWIRQPPGKGLEWLGIIWAGGSTNYNSALMSRLTISKDNSKSQVFLKMNSLQTNDTAIYYCARVSMMGFAYWGQGTLVTVSA VL: QAVVTQESALTTSPGETVTLTCRSSTGAVTTSNYANWVQEKPDHLFTGLIGGTNNRAPGVPARFSGSLIGDKAALTITGAQTEDEAIYFCSLWYGSHWVFGGGTKLTVL | – | – | 1 | 8.5 | 47.4 | 58.9
9H4, purified hybridoma antibody (antibody, V domains shown, murine hybridoma IgG) VH: EVQLLETGGGLVKSGGSLKLSCAASGFTFSDYYMYWVRQTPEKRLEWVAAISDDGTYTYYPDSVKGRFTISRDNANNYLYLQMSSLKSEDTAIYYCAKAGSYDYFDVWGAGTTVTVSS VL: DIVLTQSPASLAVSLGQRAIISCKASQSVTFADTGLMHWYQQKPGQQPKLLIYRASNLEVGVPTRFSGSGSGTDFTLNIHPVEEEDVATYYCQQSREYPWTFGGGTKLEIK | – | – | 0.5 | 1.5 | 48.4 | 46.2
